From the supplement of paper PMC7877785
± gives the uncertainty stated by the source.

Test: self-splicing fitness, log relative to wild type (ln ratio); higher = more splicing; Tetrahymena group I intron in knt gene, E. coli kanamycin selection, DiMSum; sequences stand for … in CUCUCU…GGAGGGAAAAGUUAUCAGGCAUGCACCUGGUAGCUAGUCUUUAAACCAAUAGAUUGCAUCGGUUUAAAAGGCAAGACCGUCAAAUUGCGGGAAAGGGGUCAACAGCCGUUCAGUACCAAGUCUCAGGGGAAACUUUGAGAUGGCCUUGCAAAGGGUAUGGUAAUAAGCUGACGGACAUGGUCCUAACCACGCAGCCAAGUCCUAAGUCAACAGAUCUUCUGUUGAUAUGGAUGCAGUUCACAGACUAAAUGUCGGUCGGGGAAGAUGUAUUCUUCUCAUAAGAUAUAGUCGGACCUCUCCUUAAUGGGAGCUAGCGGAUGAAGUGAUGCAACACUGGAGCCGCUGGGAACUAAUUUGUAUGCGAAAGUAUAUUGAUUAGUUUUGGAGUACUCGUGGUCG
Procedure, shortened: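 Fitness was computed with DiMSum as the error-weighted combination of replicate fold changes, kanamycin versus none, each normalised to wild type. The library randomised all eight intron nucleotides of the P1ex region, with the intron placed in the knt kanamycin-resistance gene on pET-22b(+) in E. coli BL21(DE3). Six replicate transformations were grown overnight at 37°C or 30°C on LB agar with or without 25 μg/mL kanamycin, plus 100 μg/mL carbenicillin, 50 μM IPTG and 0.2% rhamnose. Pooled colonies were amplicon-sequenced on an Illumina HiSeq 2500.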

Sequence	self-splicing fitness (ln) (30 °C)	self-splicing fitness (ln) (37 °C)
CUAGAGCAAUAUUACGUUCG	-1.1 ± 0.047	-0.578 ± 0.076
CUAUAGCAAUAUUACGACUA	-1.87 ± 0.47	–
CUAUAGCAAUAUUACGAGAU	-3.91 ± 0.42	0.449 ± 0.18
CUAUAGCAAUAUUACGAGGC	-3.06 ± 0.35	–
CUAUAGCAAUAUUACGAUGG	-3.44 ± 0.24	-1.18 ± 0.14
CUAUAGCAAUAUUACGCCAC	–	-1.21 ± 0.42
CUAUAGCAAUAUUACGCCUC	-3.66 ± 0.32	-3.15 ± 0.37
CUAUAGCAAUAUUACGCGAC	-1.89 ± 0.18	0.00503 ± 0.2
CUAUAGCAAUAUUACGCGGU	-3.7 ± 0.24	-2.29 ± 0.22
CUAUAGCAAUAUUACGCGUU	-4.27 ± 0.42	-2.18 ± 0.3
CUAUAGCAAUAUUACGCUAU	-2.77 ± 0.15	-1.72 ± 0.27
CUAUAGCAAUAUUACGGAAG	-1.87 ± 0.12	-0.957 ± 0.13
CUAUAGCAAUAUUACGGGGG	-2.16 ± 0.23	-3.09 ± 0.43
CUAUAGCAAUAUUACGGUCC	-3.69 ± 0.4	-2.56 ± 0.46
CUAUAGCAAUAUUACGGUUA	-2.91 ± 0.2	-2.84 ± 0.19
CUAUAGCAAUAUUACGUAUA	-3.27 ± 0.42	-2.56 ± 0.37
CUAUAGCAAUAUUACGUCCG	-0.823 ± 0.11	0.0188 ± 0.13
CUAUAGCAAUAUUACGUCUG	0.043 ± 0.088	-0.099 ± 0.1
CUAUAGCAAUAUUACGUGGG	-3.25 ± 0.19	-2.16 ± 0.15
CUCAAGCAAUAUUACGAAAA	-3.12 ± 0.28	-2.65 ± 0.28
CUCAAGCAAUAUUACGAACC	-2.43 ± 0.39	-2.38 ± 0.28
CUCAAGCAAUAUUACGAAGA	-3.8 ± 0.25	-2.55 ± 0.2
CUCAAGCAAUAUUACGACAU	-3.206 ± 0.018	-1.9 ± 0.034
CUCAAGCAAUAUUACGAUCU	-3.53 ± 0.26	-2.59 ± 0.24
CUCAAGCAAUAUUACGCACG	-2.51 ± 0.14	-0.724 ± 0.16
CUCAAGCAAUAUUACGCAGU	-3.28 ± 0.18	-2.32 ± 0.22
CUCAAGCAAUAUUACGCCGA	–	-1.29 ± 0.34

Sequence	self-splicing fitness (ln) (30 °C)	self-splicing fitness (ln) (37 °C)
CUCAAGCAAUAUUACGCCUG	-4.22 ± 0.31	-2.52 ± 0.24
CUCAAGCAAUAUUACGCGCC	-1.95 ± 0.32	-1.15 ± 0.26
CUCAAGCAAUAUUACGCGCU	-2.36 ± 0.18	-3.39 ± 0.32
CUCAAGCAAUAUUACGCGGG	-3.15 ± 0.25	-2.42 ± 0.25
CUCAAGCAAUAUUACGCGUG	-3.3 ± 0.21	-3.41 ± 0.43
CUCAAGCAAUAUUACGCUGA	-3.13 ± 0.18	-2.41 ± 0.2
CUCAAGCAAUAUUACGGAAG	-1.84 ± 0.11	-0.365 ± 0.12
CUCAAGCAAUAUUACGGAUU	-3.66 ± 0.17	-2.81 ± 0.19
CUCAAGCAAUAUUACGGCCC	-2.42 ± 0.41	–
CUCAAGCAAUAUUACGGGCG	-2.1 ± 0.086	-1.34 ± 0.094
CUCAAGCAAUAUUACGUACG	-1.02 ± 0.065	-0.705 ± 0.088
CUCAAGCAAUAUUACGUAGG	-0.955 ± 0.068	-0.324 ± 0.11
CUCAAGCAAUAUUACGUAUG	-2.91 ± 0.099	-2.61 ± 0.12
CUCAAGCAAUAUUACGUCCA	-2.66 ± 0.32	-1.51 ± 0.27
CUCAAGCAAUAUUACGUUGC	-4.05 ± 0.29	-2.39 ± 0.21
CUCCAGCAAUAUUACGAAUA	-3.91 ± 0.47	-2.54 ± 0.28
CUCCAGCAAUAUUACGACGA	-3.77 ± 0.26	-2.5 ± 0.18
CUCCAGCAAUAUUACGCCCU	-3.46 ± 0.34	-2 ± 0.26
CUCCAGCAAUAUUACGCGCA	-3.34 ± 0.31	-2.56 ± 0.49
CUCCAGCAAUAUUACGCGCU	-4.33 ± 0.26	-2.2 ± 0.2
CUCCAGCAAUAUUACGCUCA	-2.97 ± 0.17	-2.31 ± 0.19
CUCCAGCAAUAUUACGCUGG	-1.92 ± 0.23	–
CUCCAGCAAUAUUACGGACC	-3.65 ± 0.32	-2.64 ± 0.44
CUCCAGCAAUAUUACGGAGA	-3.61 ± 0.27	-2.21 ± 0.21
CUCCAGCAAUAUUACGGAGG	-3.04 ± 0.17	-2.44 ± 0.13
CUCCAGCAAUAUUACGGCCG	-1.3 ± 0.1	-0.777 ± 0.14
CUCCAGCAAUAUUACGGCGU	-3.61 ± 0.17	-3.4 ± 0.23

Sequence	self-splicing fitness (ln) (30 °C)	self-splicing fitness (ln) (37 °C)
CUCCAGCAAUAUUACGGCUA	-3.19 ± 0.26	-2.27 ± 0.2
CUCCAGCAAUAUUACGGGCG	-1.74 ± 0.092	-1.2 ± 0.13
CUCCAGCAAUAUUACGGGGA	-3.46 ± 0.18	-0.678 ± 0.1
CUCCAGCAAUAUUACGGGGG	-3.56 ± 0.16	-2.89 ± 0.19
CUCCAGCAAUAUUACGGGUC	-3.88 ± 0.24	-2.2 ± 0.22
CUCCAGCAAUAUUACGGUCA	-2.86 ± 0.13	-1.82 ± 0.13
CUCCAGCAAUAUUACGGUUA	-3.03 ± 0.18	-2.45 ± 0.16
CUCCAGCAAUAUUACGUACC	-3.31 ± 0.29	-1.19 ± 0.32
CUCCAGCAAUAUUACGUAUC	-3.01 ± 0.16	-2.73 ± 0.23
CUCCAGCAAUAUUACGUCAC	-3.88 ± 0.26	-2.69 ± 0.29
CUCCAGCAAUAUUACGUUCG	-3.41 ± 0.13	-2.39 ± 0.17
CUCGAGCAAUAUUACGAAUG	-1.91 ± 0.14	-1.15 ± 0.17
CUCGAGCAAUAUUACGACGU	-3.11 ± 0.14	-1.59 ± 0.14
CUCGAGCAAUAUUACGAUCA	-2.04 ± 0.4	–
CUCGAGCAAUAUUACGCAAC	-3.47 ± 0.49	-1.71 ± 0.31
CUCGAGCAAUAUUACGCCGC	–	-2.12 ± 0.4
CUCGAGCAAUAUUACGCCGG	-3.32 ± 0.43	-1.17 ± 0.34
CUCGAGCAAUAUUACGCCGU	–	-1.79 ± 0.26
CUCGAGCAAUAUUACGCGCC	-2.53 ± 0.19	-2.12 ± 0.37
CUCGAGCAAUAUUACGCGCU	-3.66 ± 0.22	-2.69 ± 0.23
CUCGAGCAAUAUUACGGGAA	-3.85 ± 0.35	-2.42 ± 0.23
CUCGAGCAAUAUUACGGGAC	-3.8 ± 0.24	-2.41 ± 0.27
CUCGAGCAAUAUUACGGGAG	–	-1.11 ± 0.22
CUCGAGCAAUAUUACGUAAG	-2.81 ± 0.17	-1.26 ± 0.18
CUCGAGCAAUAUUACGUCGG	-1.37 ± 0.15	-0.674 ± 0.21
